Source: the RNAGym collection of RNA variant scans (doi:10.1073/pnas.2313332121)

B1: TPR t1 (parent)
chain: GACCAAUCUGCCCUCAGAGCUCGAGAACAUCUUCGGAUGCAGAGGAGGCAGGCUUCGGUGGCGCGAUAGCGCCAACGUCCUCAACCUCCAAUGCAUCCCACCACAUGAUGAUGCCUGAAGAGCCUUGGUUUUUUG

Variants of: B1
Assay: polymerase ribozyme fitness, log enrichment relative to wild type (log ratio); higher = more active; in vitro selection for triplet polymerase activity
How it was run: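 In triplicate, a single round of in vitro selection was run on each mutant library, PCR-built and transcribed, covering one subunit of a heterodimeric triplet polymerase ribozyme. Frozen incubation at −7 °C followed annealing with a biotinylated primer, partner subunit and triplets, and extended constructs were then gel-excised, streptavidin-captured and taken through RT-PCR. Fitness is the logarithm of genotype enrichment over wild-type enrichment, from inverse-variance-weighted replicate averages of Illumina-sequenced inputs and outputs. […] only genotypes with ≥10 input reads and ≥1 read per output were kept.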

| Variant | polymerase ribozyme fitness (log ratio) |
| --- | --- |
| GACCAAUCUGCCCUCAGAGCUCGAGAACAUCUUCGGAUGCAGAAGAGGCAGGCUUCGGUCGCGCGAUAGCGCCAACGUCCUCAACCUCCAAUGCAUCCCACCACAUGAUGAUGACUGAAGAGCCUUGGUUUUUUG [G44A G60C C114A] | -2.55 |
| GACCAAUCUGCCCUCAGAGCUCGAGAACAUCUUCGGAUGCAGAAGAGGCAGGCUUCGGUAGCGCGAUAGCGCCAACGUCCUCAACCUCCAAUGCAUCCCACCACAUGAUGAUGCCUGAAGCUCCUUGGUUUUUUG [G44A G60A A121C G122U] | -1.92 |
| GACCAAUCUGCCCUCAGAGCUCGAGAACAUCUUCGGAUGCAGAAGAGGCAGGCUACGGUGGCGCGAUAGCGCCAACGUCCUCAAGCUCCAAUGCAUCCCACCACAUGAUGAUACCUGAAGAGCCUUGGUUUUUUG [G44A U55A C85G G113A] | -3.2 |
| GACCAAUCUGCCCUCAGAGCUCGAGAACAUCUUCGGAUGCAGAAGAGGCAGGCUUCGGUGGCGCGAUAGCGCCAACGUCCUCAACCUCCAAUGCAUCCCACCACAUGAUGAUGCCUUAAGAGCCUUGGUUUUUUG [G44A G117U] | -3.1 |
| GACCAAUCUGCCCUCAGAGCUCGAGAACAUCUUCGGAUGCAGAAGAGGCAGGCUUCGGUCGCGCGAUAGCGCCAACGUCCUCAACCUCCAAUGCAUCCCACCACAUGAUGUUGCCUGAAGAGCCUUGGUUUUUUG [G44A G60C A111U] | -5.02 |
| GACCAAUCUGCCCUCAGAGCUCGAGAACAUCUUCGGAUGCAGAAGAGGCAGGCUUCGGUGGCGCGAUAGCGCCAACGUCCUCAACCUCCAAUGCAUCCCACCACAUGAUGAUCCCUGAAGAGCCUUGGUUUUUUG [G44A G113C] | -3.16 |
| GACCAAUCUGCCCUCAGAGCUCGAGAACAUCUUCGGAUGCAGAAGAGGCAGGCUUCGGUGGCUCGAUAGCGCCAACGUCCUCAACCUCCAAUGCAUCCCACCACAUGAUGAUGCCUGAAGAGCCUUGGUUUUUUG [G44A G63U] | -1.78 |
| GACCAAUCUGCCCUCAGAGCUCGAGAACAUCUUCGGAUGCAGAAGAGGCAGGCUUCGUUGGCGCGAUAGCGCCAACGUCCACAACCUCCAAUGCAUCCCACCACAUGAUGAUGCCUGAAGAGCCUUGGUUUUUUG [G44A G58U U81A] | -1.79 |
| GACCAAUCUGCCCUCAGAGCUCGAGAACAUCUUCGGAUGCAGAAGAGGCAGGCUUCGGUGGCGCGAUAGCGCCAACGACCUCAACCUCCAAUUCAUCCCACCACAUGAUGAUGCCUGAAGAGCCUUGGUUUUUUG [G44A U78A G93U] | -1.85 |
| GACCAAUCUGCCCUCAGAGCUCGAGAACAUCUUCGGAUGCAGAAGAGGCAGGCUUCGGUGGCGCGAUAGCGCCAACGUCCUCAACCUCCAAUGCAUCCCACCACAUGAUGAUGCCUGAAGAACCUUCGUUUUUUG [G44A G122A G127C] | -2.85 |
| GACCAAUCUGCCCUCAGAGCUCGAGAACAUCUUCGGAUGCAGAAGAGGCAGGCUUCGGUGUCGCGAUAGCGCCAACGUCCUCAACCUCCAAUGCAUCCUACCACAUGAUGAUGCCUGAAGAGCCUUGGUUUUUUG [G44A G61U C99U] | -4.04 |
| GACCAAUCUGCCCUCAGAGCUCGAGAACAUCUUCGGAUGCAGAAGAGGCAGGCUUCGGUUGCGCGAUAGCGCCAACGUCCUCAACCUCCAAUGCAUCCCACCACAUGGUGAUGCCUGAAGAGCCUUGGUUUUUUG [G44A G60U A108G] | -2.88 |
| GACCAAUCUGCCCUCAGAGCUCGAGAACAUCUUCGGAUGCAGAAGAGUCAGGCUUCGGUGGCGCGAUAGCGCCAACGUCCUCAACCUCCAAUGCAUCCCACCACAUGAUGAUGCCUGAAGAGCCGUGGUUUUUUG [G44A G48U U125G] | -2.23 |
| GACCAAUCUGCCCUCAGAGCUCGAGAACAUCUUCGGAUGCAGAAGAGCCAGGCUUCGGUGGCGCGAUAGCGCCAACGUCCUCAACCUCCAAUGCAUCCCACUACAUGAUGAUGCCUGAAGAGCAUUGGUUUUUUG [G44A G48C C102U C124A] | -1.74 |
| GACCAAUCUGCCCUCAGAGCUCGAGAACAUCUUCGGAUGCAGAAGAGGCAGGCUUCGGUGGCGCGAUAGCACCAACGUCCUCAACCGCCCAUGCAUCCCACCACAUGAUGAUGCCUGAAGAGCCUUGGUUUUUUU [G44A G71A U87G A90C G135U] | -2.38 |
| GACCAAUCUGCCCUCAGAGCUCGAGAACAUCUUCGGAUGCAGAAGAGGCAAGCUUCGGUGGCGCGAUAGCGCCAACGUCUUCAACAUCCAAUGCAUCCCACCACAUGAUGAUGCCUGAAGAGCGUUGGUUUUUUG [G44A G51A C80U C86A C124G] | -0.462 |
| GACCAAUCUGCCCUCAGAGCUCGAGAACAUCUUCGGAUGCAGAAGAGGCAGGCUUCGGUGGCGCGAUAGCGCCAACGUCCUCAACCUCCAAUGCAUCCCACCACAUGAUGAUGCCUGAAGAGCUUUGGUUUUUUG [G44A C124U] | 0.684 |
| GACCAAUCUGCCCUCAGAGCUCGAGAACAUCUUCGGAUGCAGAAGAGGCAGGCAUCGGUGGAGCGAUAGCGCCAACGUCCUCAACCUCCAAUGCAUCCCACCACAAGAUGAUGCCUGAAGAGCCUUGGUUUUUUG [G44A U54A C62A U106A] | -3.38 |
| GACCAAUCUGCCCUCAGAGCUCGAGAACAUCUUCGGAUGCAGAAGAGCCAGGCUUCGGUUGCGCGAUAGCGCCAACGUCCUCAACCUCCAAUGCAUCCCACCACAUGAUGAUGCCUGAAGAGCCUUGGUUUUUUG [G44A G48C G60U] | -0.957 |
| GACCAAUCUGCCCUCAGAGCUCGAGAACAUCUUCGGAUGCAGAAGAGGCACGCUUCGGUGGGGCGAUAGCGCCAACGUCCUCAAGCUCCAAUGCAUCCCACCACAUGAUCAUGCCUGAAGAGCCUUGGUUUUUUG [G44A G51C C62G C85G G110C] | -7.25 |
| GACCAAUCUGCCCUCAGAGCUCGAGAACAUCUUCGGAUGCAGAAGAGGCAUGCUUCGGUGGCGCGAUAGCGCCAACGUCCUCAACCUCCAAUGCAUCCCACCACAUGAUGAUGCCUGAAGGGCCUUGGUUUUUUG [G44A G51U A121G] | -3.43 |
